The text below walks through data of article PMC11362210, “N-carboxyacyl and N-α-aminoacyl derivatives of aminoaldehydes as shared substrates of plant aldehyde dehydrogenases 10 and 7” (Amino Acids, 2024).

Common to all, as to test: purified protein
Substrate in data set [1]: N[C@@H](Cc1ccccc1)C(=O)NCCC=O
The class given is biochemical, Zea mays. The following applies: 2.5 mM NAD+, 0.1 M sodium pyrophosphate, pH 8.1.

Substrate in data set [2]: O=CCCCNC(=O)CC(=O)O
The class given is biochemical, Zea mays. Conditions: 2.5 mM NAD+, 0.1 M sodium pyrophosphate, pH 8.1.

Substrate in data set [3]: N[C@@H](Cc1ccccc1)C(=O)NCCCC=O
The class given is biochemical, Zea mays. Conditions: 2.5 mM NAD+, 0.1 M sodium pyrophosphate, pH 8.1.

Substrate in data set [4]: N[C@@H](Cc1ccc(O)cc1)C(=O)NCCC=O
The class given is biochemical, Zea mays. Conditions: 2.5 mM NAD+, 0.1 M sodium pyrophosphate, pH 8.1.

Substrate in data set [5]: O=CCCNC(=O)CC(=O)O
The class given is biochemical, Zea mays. Conditions: 2.5 mM NAD+, 0.1 M sodium pyrophosphate, pH 8.1.

Substrate in data set [6]: N[C@@H](CCCC=O)C(=O)O
The class given is biochemical, Zea mays. Conditions: 2.5 mM NAD+, 0.1 M sodium pyrophosphate, pH 8.1.

Substrate in data set [7]: NCCC=O
The class given is biochemical, Lathyrus oleraceus. The following applies: 1 mM NAD+, 0.15 M Tris-HCl, pH 9.0.

Substrate in data set [8]: NCCCC=O
The class given is biochemical, Lathyrus oleraceus. The following applies: 1 mM NAD+, 0.15 M Tris-HCl, pH 9.0.

Substrate in data set [9]: O=CCCNC(=O)CCC(=O)O
The class given is biochemical, Lathyrus oleraceus. Conditions: 1 mM NAD+, 0.15 M Tris-HCl, pH 9.0.

Substrate in data set [10]: O=CCCCNC(=O)CCCC(=O)O
The class given is biochemical, Lathyrus oleraceus. Conditions: 1 mM NAD+, 0.15 M Tris-HCl, pH 9.0.

Substrate in data set [11]: N[C@@H](Cc1ccc(O)cc1)C(=O)NCCCC=O
The class given is biochemical, Lathyrus oleraceus. Conditions: 1 mM NAD+, 0.15 M Tris-HCl, pH 9.0.

Substrate in data set [12]: O=CCCCNC(=O)CCC(=O)O
The class given is biochemical, Lathyrus oleraceus. The following applies: 1 mM NAD+, 0.15 M Tris-HCl, pH 9.0.

Substrate in data set [13]: N[C@@H](Cc1ccccc1)C(=O)NCCCC=O
The class given is biochemical, Lathyrus oleraceus.

Substrate in data set [14]: O=CCCNC(=O)CCCC(=O)O
The class given is biochemical, Lathyrus oleraceus. The following applies: 1 mM NAD+, 0.15 M Tris-HCl, pH 9.0.

Substrate in data set [15]: N[C@@H](Cc1ccccc1)C(=O)NCCC=O
The class given is biochemical, Lathyrus oleraceus. The following applies: 2.5 mM NAD+, 0.1 M sodium pyrophosphate, pH 8.1.

Substrate in data set [16]: O=CCCCNC(=O)CC(=O)O
The class given is biochemical, Lathyrus oleraceus. Conditions: 2.5 mM NAD+, 0.1 M sodium pyrophosphate, pH 8.1.

Substrate in data set [17]: N[C@@H](Cc1ccc(O)cc1)C(=O)NCCC=O
The class given is biochemical, Lathyrus oleraceus. The following applies: 2.5 mM NAD+, 0.1 M sodium pyrophosphate, pH 8.1.

Substrate in data set [18]: O=CCCNC(=O)CC(=O)O
The class given is biochemical, Lathyrus oleraceus. Conditions: 2.5 mM NAD+, 0.1 M sodium pyrophosphate, pH 8.1.

Substrate in data set [19]: N[C@@H](CCCC=O)C(=O)O
The class given is biochemical, Lathyrus oleraceus. The following applies: 2.5 mM NAD+, 0.1 M sodium pyrophosphate, pH 8.1.

Where [20] appears, read: 1 mM NAD+, 0.15 M Tris-HCl, pH 9.0.
Setting [21] is: 2.5 mM NAD+, 0.1 M sodium pyrophosphate, pH 8.1.

B1: ZmALDH7 (Zea mays) (protein)
chain: MGAFAKEEHQFLAELGLAQRNPGAFACGAWGGSGPTVTSTSPTNNQVIAEVVEASVHDYEEGMRACFDAAKTWMAIPAPKRGEIVRQIGDALRAKLHHLGRLVSLEMGKILPEGIGEVQEIIDMCDYAVGLSRQLNGSIIPSERPNHMMMEVWNPLGVVGVITAFNFPCAVLGWNACIALVCGNCVVWKGAPTTPLITIAMTKIVASVLEKNNLPGAIFTSFCGGTEIGQAIALDIRIPLVSFTGSTRAGLMVQQQVSARFGKCLLELSGNNAIIVMDDADIQLAVRSVLFAAVGTAGQRCTTCRRLILHENIYQTFLDQLVEVYKQVRIGDPLEKGTLLGPLHTPASKENFLKGIQTIKSQGGKILFGGSAIESEGNFVQPTIVEITPSAPVVKEELFGPVLYVMKFQSLKEAIEINNSVPQGLSSSIFTKRPDIIFKWLGPHGSDCGIVNVNIPTNGAEIGGAFGGEKATGGGREAGSDSWKQYMRRATCTINYGSELPLAQGINFG
notes: recombinant
Consider B1, for which the Km in [1] stood at 66 ± 12 µM; in data set [2], 1493 ± 225 µM; in data set [3] it was 457 ± 55 µM; in [4] it was 216 ± 56 µM; in data set [5], 1997 ± 142 µM; in data set [6], 191 ± 14 µM. In addition, the kcat in data set [1] turned out to be 0.06 ± 0.01 s⁻¹; in data set [2] it was 0.18 ± 0.01 s⁻¹; in data set [3], 0.02 s⁻¹; in data set [4], 0.06 ± 0.01 s⁻¹; in [5] it was 0.15 ± 0.01 s⁻¹; in data set [6] it was 0.77 ± 0.04 s⁻¹. The kcat/Km was determined as 910 M⁻¹ s⁻¹ in [1]; 120 M⁻¹ s⁻¹ in data set [2]; 44 M⁻¹ s⁻¹ in data set [3]; 280 M⁻¹ s⁻¹ in data set [4]; 75 M⁻¹ s⁻¹ in data set [5]; 4000 M⁻¹ s⁻¹ in [6].

B2: PsAMADH (native pea aminoaldehyde dehydrogenase, prevailing isoenzyme 1) (Lathyrus oleraceus) (protein)
chain: MAITVSSRQLFIDGEWRVPILNKRIPNINPSTENIIGDIPAATKEDVDLAVDAAKRAISRKNGRDWSAASGSLRARYLRAIAAKIKEKKDELGKLESIDCGKPLEEALADLDDVVACFEYYAGLAEELDSKQKAPISLPMDTFKSYILKEPIGVVALITPWNYPFLMATWKIAPALAAGCAAILKPSELASVTCLELGEICKEVGLPRGVLNIVTGLGHEAGASLASHPDVDKISFTGSSATGSKIMTTAAQLVKPVSLELGGKSPIVVFEDVDLDKVAEWTVFGCFFTNGQICSATSRLIVHESIAVEFVDKLVKWAENIKISDPLEEGCRLGPIVSEAQYKKVLNCISSAKSEGATILTGGRRPEHLKKGYFVEPTIITDVTTSMQIWREEVFGPVLAVKTFSTEEEAINLANDTHYGLGSAVMSNDLERCERLSKALQAGIVWINCAQPSFIQAPWGGIKRSGFGRELGEWGLENYLSVKQVTRYTSDEPWGWYQPPSKL
notes: native, purified from 7-day-old etiolated pea seedlings
With B2, the Km in [7] stood at 136 ± 11 µM; in data set [8], 103 ± 17 µM; in [9], 513 ± 36 µM; in [10], 427 ± 33 µM; in data set [11], 174 ± 42 µM; in [12], 138 ± 6 µM. For the same protein, the values for the Km in [13] (setting [20]) and in data set [14] were 101 ± 10 µM and 506 ± 92 µM, respectively. In addition, the kcat was 3.36 ± 0.2 s⁻¹ in data set [7]; 1.34 ± 0.07 s⁻¹ in data set [8]; 4.13 ± 0.2 s⁻¹ in data set [9]; 1.49 ± 0.11 s⁻¹ in [10]; 0.22 ± 0.04 s⁻¹ in data set [11]; 1.61 ± 0.07 s⁻¹ in [12]. Also, the values for the kcat in data set [13] (setting [20]) and in [14] were 0.17 s⁻¹ and 1.29 ± 0.14 s⁻¹, respectively. Besides, the kcat/Km in data set [7] came out at 24700 M⁻¹ s⁻¹; in data set [8], 13000 M⁻¹ s⁻¹; in data set [9] it was 8100 M⁻¹ s⁻¹; in [10], 3500 M⁻¹ s⁻¹; in [11] it was 1300 M⁻¹ s⁻¹; in data set [12], 11700 M⁻¹ s⁻¹. Further, the kcat/Km worked out at 1700 M⁻¹ s⁻¹ in [13] (setting [20]) and 2500 M⁻¹ s⁻¹ in data set [14].

B3: PsALDH7 (Lathyrus oleraceus) (protein)
chain: GSDSNNLGFLKEIGLGATNIGSFINGQWKANGPTVHSVNPSTNQVIASVTEATLDDYEEGLRASSEAAKTWRTVPAPKRGEIVRQIGDALRAKLDPLGRLVALEMGKILAEGIGEVQEIIDMCDYSVGLSRQLNGSIIPSERPEHMMFEVWNPLGIVGVITAFNFPCAVLGWNACIALVGGNTVVWKGAPTTPLITVAVTKLIAEVFERNNLPGAIFTALCGGADIGHAIAKDTRIPLVSFTGSSKVGALVQQTVSQRFGKTLLELSGNNAIIVMDDADITLAVRSIFFAAVGTAGQRCTTCRRLYLHESVYANVLEQLTALYKQVKIGNPLEEGTLVGPLHTRSAVENFKNGISAIKSQGGKIVTGGSVLESEGNFVVPTIVEISADAAVVKEELFAPVLYVMKFKDLEEAIALNNSVPQGLSSSIFTQKPSTIFKWIGPSGSDCGIVNVNIPTNGAEIGGAFGGEKATGGGREAGSDSWKQYMRRSTCTINYGSELPLAQGINFG
notes: recombinant
Regarding B3, the Km in data set [15] is 74 ± 7 µM; in [16], 703 ± 72 µM; in data set [13] (setting [21]) it was 656 ± 55 µM; in [17] it was 252 ± 45 µM; in data set [18], 2522 ± 203 µM; in data set [19], 172 ± 32 µM. For the same protein, the kcat in data set [15] stood at 0.07 s⁻¹; in data set [16] it was 0.13 ± 0.01 s⁻¹; in data set [13] (setting [21]), 0.04 s⁻¹; in [17] it was 0.09 ± 0.01 s⁻¹; in data set [18], 0.19 ± 0.01 s⁻¹; in data set [19], 0.77 ± 0.09 s⁻¹. Also, the kcat/Km in [15] is 950 M⁻¹ s⁻¹; in data set [16] it was 180 M⁻¹ s⁻¹; in data set [13] (setting [21]) it was 61 M⁻¹ s⁻¹; in data set [17], 360 M⁻¹ s⁻¹; in data set [18] it was 75 M⁻¹ s⁻¹; in [19] it was 4500 M⁻¹ s⁻¹.

As usually defined, the Km is the concentration of substrate that gives half-maximal velocity. The term kcat denotes the number of substrate molecules converted per active site and unit of time at saturation. One may read the kcat/Km as the turnover number divided by the Michaelis constant.
